According to US20250019427A1 (BYOMASS, published 2025):
“And” between values parts separate entries of the source, which are not always exact repeats. Equal values may be shown once.

Key:
[1] = biological target: T1, Cyno GDF15 Fc (cyno, UniProt G7PWZ3 193-308); test: Octet BLI, Fab monovalent
T1 construct: also called cyno GDF15-Fc fusion
T1 sequence: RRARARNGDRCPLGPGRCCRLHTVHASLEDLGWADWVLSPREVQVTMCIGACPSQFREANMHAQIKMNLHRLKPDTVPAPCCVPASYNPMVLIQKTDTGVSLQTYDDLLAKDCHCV

[2] = biological target: T2, GDF15 (Homo sapiens (Human), UniProt Q99988 30-308); test: cell-based or functional assay
T2 sequence: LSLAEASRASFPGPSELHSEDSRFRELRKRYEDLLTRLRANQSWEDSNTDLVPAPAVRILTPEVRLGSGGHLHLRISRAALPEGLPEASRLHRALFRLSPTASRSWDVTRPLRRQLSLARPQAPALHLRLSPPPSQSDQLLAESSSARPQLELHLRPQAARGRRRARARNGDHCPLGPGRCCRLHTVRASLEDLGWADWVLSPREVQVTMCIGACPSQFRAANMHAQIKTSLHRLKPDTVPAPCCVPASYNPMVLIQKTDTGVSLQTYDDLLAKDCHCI

[3] = biological target: T3, Mouse GDF15 Fc (mouse, UniProt Q9Z0J7 189-303, limits assumed); test: Octet BLI, Fab monovalent
T3 construct: also called mouse GDF15Fc fusion
T3 sequence (looked up): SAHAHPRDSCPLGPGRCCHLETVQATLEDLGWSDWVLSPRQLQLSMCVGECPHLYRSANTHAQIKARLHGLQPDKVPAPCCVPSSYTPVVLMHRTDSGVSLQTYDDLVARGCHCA

[4] = biological target: T4, GDNF (UniProt P39905 78-211); test: Octet BLI, IgG on tip, avid
T4 sequence (looked up): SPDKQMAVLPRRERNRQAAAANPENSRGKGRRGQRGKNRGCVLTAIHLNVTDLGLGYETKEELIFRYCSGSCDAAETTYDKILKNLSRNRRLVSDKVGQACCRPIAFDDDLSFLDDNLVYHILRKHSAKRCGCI

[5] = biological target: T5, Human Activin A Fc (human, UniProt P08476 311-426); test: Octet BLI, IgG on tip, avid
T5 sequence (looked up): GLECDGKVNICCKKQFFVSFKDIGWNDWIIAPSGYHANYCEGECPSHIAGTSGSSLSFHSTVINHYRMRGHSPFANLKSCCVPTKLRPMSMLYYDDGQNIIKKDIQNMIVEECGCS

[6] = biological target: T6, GDF11 (UniProt O95390 299-407); test: Octet BLI, IgG on tip, avid
T6 construct: Also the GDF-11 ligand of the ActRIIB/SMAD reporter assay

[7] = biological target: T7, Human BMP10 (human, UniProt O95393 317-424); test: Octet BLI, IgG on tip, avid
T7 sequence (looked up): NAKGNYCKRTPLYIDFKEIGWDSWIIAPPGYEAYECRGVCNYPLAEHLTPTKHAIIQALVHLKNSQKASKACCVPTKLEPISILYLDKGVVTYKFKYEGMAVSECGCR

[8] = biological target: T8, Human Activin B (human, UniProt P09529 293-407); test: Octet BLI, IgG on tip, avid
T8 construct: Also used for the Activin B ligand of the ActRIIB/SMAD reporter assay, where the species is not restated
T8 sequence (looked up): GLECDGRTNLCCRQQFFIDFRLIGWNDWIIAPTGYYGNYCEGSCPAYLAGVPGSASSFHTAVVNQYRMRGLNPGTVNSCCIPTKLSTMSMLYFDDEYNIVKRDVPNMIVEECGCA

[9] = biological target: GDF8 (UniProt O14793 267-375); test: Octet BLI, IgG on tip, avid

T6 sequence (O95390 299-407 limits assumed): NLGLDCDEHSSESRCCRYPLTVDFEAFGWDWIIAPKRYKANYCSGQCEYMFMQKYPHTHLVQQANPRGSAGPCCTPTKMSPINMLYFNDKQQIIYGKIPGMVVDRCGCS

Row | Binder | Kd [1] | GDF15 GFRAL RET pERK Fab IC50 pM [2] | Kd [3] | other results
1 | Clone B Fab (Fab, V domains shown, Fab format) VH: QVQLQESGPGLVKPSQTLSLTCTVSGGSISSGGIYWTWIRQHPGKGLEWIGAIAYSGSTYYNPSLKSRVTISVDTSKNQFSLKLSSVTAADTAVYYCARGIEYQHFDYWGQGTLVTVSS VL: not shown | 0.349 nM | 30.9 pM |  | 
2 | Clone A Fab (Fab, V domains shown, Fab format; also called Fab of Clone A) VH: QVQLQESGPGLVKPSQTLSLTCTVSGGSITSGGSYWSWIRQHPGKGLEWIGAIVYSGSTYYNPSLKSRVTISVDTSKNQFSLKLSSVTAADTAVYYCARGVEYQHFDYWGQGTLVTVSS VL: not shown | 0.536 nM | 26.5 pM |  | 
3 | Clone C Fab (Fab, V domains shown, Fab format; also called Fab of Clone C) VH: QVQLQESGPGLVKPSQTLSLTCTVSGGSISSGGYYWSWIRQHPGKGLEWIGAIVYSGHTYYNPSLKSRVTISVDTSKNQFSLKLSSVTAADTAVYYCARGVEYQHFSLWGQGTLVTVSS VL: not shown | 0.36 nM | 36.8 pM | 156 nM | 
4 | Clone D Fab (Fab, V domains shown, Fab format) VH: QVQLQESGPGLVKPSQTLSLTCTVSGGSINSGGYYWTWIRQHPGKGLEWIGAIYYSGSTVYNPSLKSRVTISVDTSKNQFSLKLSSVTAADTAVYYCARGVEYQHFNEWGQGTLVTVSS VL: not shown | 0.562 nM | 27 pM | 157 nM | 
5 | Clone Q Fab (Fab, V domains shown, Fab format) VH: QVQLQESGPGLVKPSQTLSLTCTVSGGSISSGGIYWTWIRQHPGKGLEWIGAIAYSGSTYYNPSLKSRVTISVDTSKNQFSLKLSSVTAADTAVYYCARGIEYQHFDYWGQGTLVTVSS VL: not shown | 0.327 nM |  | 204 nM | 
6 | Clone R Fab (Fab, V domains shown, Fab format) VH: QVQLQESGPGLVKPSQTLSLTCTVSGGSISSGGIYWTWIRQHPGKGLEWIGAIAYSGSTYYNPSLESRVTISVDTSKNQFSLKLSSVTAADTAVYYCARGIEYQHFDYWGQGTLVTVSS VL: not shown | 0.366 nM |  | 234 nM | 
7 | Clone E Fab (Fab, V domains shown, Fab format) VH: QVQLVQSGAEVKKPGASVKVSCKASGYTFTSYGINWVRQAPGQGLEWMGWITAYSGDTNYAQKLQGRVTMTTDTSTSTAYMELRSLRSDDTAVYYCARGPGQYADVDVWGQGTMVTVSS VL: DIQMTQSPSSVSASVGDRVTITCRASQGISSWLAWYQQKPGKAPKLLIYAASSLQSGVPSRFSGSGSGTDFTLTISSLQPEDFATYYCQQANSFPITFGGGTKVEIK | 0.413 nM | 46.7 pM | 3.08 nM | 
8 | Clone I Fab (Fab, V domains shown, Fab format) VH: QVQLVQSGAEVKKPGASVKVSCKASGYTFTDEGINWVRQAPGQGLEWMGWITAYSGDTVYAQKLQGRVTMTTDTSTSTAYMELRSLRSDDTAVYYCARGPGQYADVDVWGQGTMVTVSS VL: DIQMTQSPSSVSASVGDRVTITCRASQGISSWLAWYQQKPGKAPKLLIYAASSLQSGVPSRFSGSGSGTDFTLTISSLQPEDFATYYCQQANSFPITFGGGTKVEIK | 1.38 nM | 111 pM | 1.45 nM | 
9 | Clone J Fab (Fab, V domains shown, Fab format) VH: QVQLVQSGAEVKKPGASVKVSCKASGYTFTSYGINWVRQAPGQGLEWMGWIDAYSGSTNYAQKLQGRVTMTTDTSTSTAYMELRSLRSDDTAVYYCARGPGQYADVDVWGQGTMVTVSS VL: DIQMTQSPSSVSASVGDRVTITCRASQGISSWLAWYQQKPGKAPKLLIYAASSLQSGVPSRFSGSGSGTDFTLTISSLQPEDFATYYCQQANSFPITFGGGTKVEIK | 0.769 nM | 75.1 pM |  | 
10 | Clone S Fab (Fab, V domains shown, Fab format) VH: QVQLVQSGAEVKKPGASVKVSCKASGYTFTSYGINWVRQAPGQGLEWMGWITAYSGDTNYAQKLQGRVTMTTDTSTSTAYMELRSLRSDDTAVYYCARGPGQYADVDVWGQGTMVTVSS VL: DIQLTQSPSSVSASVGDRVTITCRASQGISPWLAWYQQKPGKAPKLLIYAASSLQSGVPSRFSGSGSGTDFTLTISSLQPEDFATYYCQQANSFPITFGGGTKVEIK | 0.252 nM |  | 1.36 nM | 
11 | Clone T Fab (Fab, V domains shown, Fab format) VH: QVQLVQSGAEVKKPGASVKVSCKASGYTFTSYGINWVRQAPGQGLEWMGWITAYSGDTNYAQKLQGRVTMTTDTSTSTAYMELRSLRSDDTAVYYCARGPGQYADVDVWGQGTMVTVSS VL: DIQMTQSPSSVSASVGDRVTITCRASQGISSWLAWYQQKPGKAPKLLIYAASSLQSGVPSRFSGSGSGTDFTLTISSLQPEDFATYYCQQASQFPITFGGGTKVEIK | 0.369 nM |  | 1.92 nM | 
12 | Clone F IgG (antibody, V domains shown, IgG format) VH: QVQLVQSGAEVKKPGSSVKVSCKASGGTFGGYAISWVRQAPGQGLEWMGGIIPPYATANYAQKFQGRVTITADESTSTAYMELSSLRSEDTAVYYCARGVGTTHLDVWGQGTMVTVSS VL: not shown |  |  |  | GDF15 - GFRAL RET pERK IC50 (pM) [2]: 34.9 pM; GDF15 - GFRAL-RET Luciferase IC50 (pM) [2]: 91.3 pM; binding result [4]: no binding (tested: 100 nM); binding result [5]: no binding (tested: 100 nM); binding result [6]: no binding (tested: 100 nM); binding result [7]: no binding (tested: 100 nM); binding result [8]: no binding (tested: 100 nM); binding result [9]: no binding (tested: 100 nM)
13 | Clone F Fab (Fab, V domains shown, Fab format) VH: QVQLVQSGAEVKKPGSSVKVSCKASGGTFGGYAISWVRQAPGQGLEWMGGIIPPYATANYAQKFQGRVTITADESTSTAYMELSSLRSEDTAVYYCARGVGTTHLDVWGQGTMVTVSS VL: not shown | 0.553 nM | 11.2 pM | 26.1 nM | 
14 | Clone G Fab (Fab, V domains shown, Fab format) VH: QVQLVQSGAEVKKPGSSVKVSCKASGGTFQGYAISWARQAPGQGLEWMGGIIPPYATANYAQKFQGRVTITADESTSTAYMELSSLRSEDTAVYYCARGVGELHLDVWGQGTMVTVSS VL: not shown | 0.474 nM | 33.2 pM |  | 
15 | Clone H Fab (Fab, V domains shown, Fab format) VH: QVQLVQSGAEVKKPGSSVKVSCKASGGTFSSYYISWVRQAPGQGLEWMGGIAPISGTASYAQKFQGRVTITADESTSTAYMELSSLRSEDTAVYYCARGLAYDGYFDLWGRGTLVTVSS VL: not shown | 1.42 nM | 24.6 pM | 50.9 nM | 
16 | Clone N Fab (Fab, V domains shown, Fab format) VH: QVQLVQSGAEVKKPGASVKVSCKASGYTFTDYGIFWVRQAPGQGLEWMGWITAYSGDTHYAQKLQGRVTMTTDTSTSTAYMELRSLRSDDTAVYYCVRDTQYGGSPYWGQGTLVTVSS VL: EIVMTQSPATLSVSPGERATLSCRASQSVSSNLAWYQQKPGQAPRLLIYGASTRATGIPARFSGSGSGTEFTLTISSLQSEDFAVYYCQQYNNWPITFGGGTKVEIK |  | 322 pM | 2.56 nM | 
17 | Clone O Fab (Fab, V domains shown, Fab format) VH: QVQLVQSGAEVKKPGATVKVSCKASGYTFDSLGMSWVRQAPGQGLEWMGYISTYSGDTVYAQKLQGRVTMTTDTSTSTAYMELRSLRSDDTAVYYCARESGQQVSALDPWGQGTLVTVSS VL: DIQMTQSPSSVSASVGDRVTITCRASQGISRWLAWYQQKPGKAPKLLIYAASSLQSGVPSRFSGSGSGTDFTLTISSLQPEDFATYYCQQGASFPLTFGGGTKVEIK | 0.277 nM |  | 11.6 nM | 
18 | Clone P Fab (Fab, V domains shown, Fab format) VH: QVQLVQSGAEVKKPGATVKVSCKASGYTFDSYGIHWVRQAPGQGLEWMGWITAYSGDTVYAQKLQGRVTMTTDTSTSTAYMELRSLRSDDTAVYYCARESGQTSSALGPWGQGTLVTVSS VL: DIQMTQSPSSVSASVGDRVTITCRASQGISRWLAWYQQKPGKAPKLLIYAASSLQSGVPSRFSGSGSGTDFTLTISSLQPEDFATYYCQQGASFPLTFGGGTKVEIK | 1.72 nM | 701 pM and 1000 pM |  | 
